In PMC9482650, “Quantitative fragmentomics allow affinity mapping of interactomes” (Nature Communications, 2022):
Residue numbers refer to the chain shown, from its start.

T1: APBA1_1, Q02410
T1 sequence (Q02410 651-752, limits assumed, looked up): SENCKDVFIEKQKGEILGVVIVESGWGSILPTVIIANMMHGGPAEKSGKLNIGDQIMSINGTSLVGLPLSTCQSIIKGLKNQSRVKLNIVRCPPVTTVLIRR

T2: ARHGAP21, Q5T5U3
T2 sequence (Q5T5U3 45-169, limits assumed, looked up): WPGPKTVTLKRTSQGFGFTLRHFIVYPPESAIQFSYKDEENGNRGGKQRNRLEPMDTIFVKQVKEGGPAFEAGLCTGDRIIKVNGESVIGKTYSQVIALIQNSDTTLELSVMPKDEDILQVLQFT

T3: DFNB31_2, Q9P202
T3 sequence (Q9P202 274-371, limits assumed, looked up): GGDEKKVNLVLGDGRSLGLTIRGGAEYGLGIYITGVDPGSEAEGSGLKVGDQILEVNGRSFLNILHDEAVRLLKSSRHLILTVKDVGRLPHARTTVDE

T4: DLG3_2, Q92796
T4 sequence (Q92796 221-321, limits assumed, looked up): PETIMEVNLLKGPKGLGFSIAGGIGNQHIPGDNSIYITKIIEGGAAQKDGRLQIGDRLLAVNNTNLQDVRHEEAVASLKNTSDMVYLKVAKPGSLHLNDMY

T5: GRIP1_3, Q9Y3R0
T5 sequence (Q9Y3R0 247-346, limits assumed, looked up): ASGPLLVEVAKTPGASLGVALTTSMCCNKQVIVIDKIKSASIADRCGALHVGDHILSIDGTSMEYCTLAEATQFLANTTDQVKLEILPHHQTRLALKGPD

T6: GRIP1_4, Q9Y3R0
T6 sequence (Q9Y3R0 467-571, limits assumed, looked up): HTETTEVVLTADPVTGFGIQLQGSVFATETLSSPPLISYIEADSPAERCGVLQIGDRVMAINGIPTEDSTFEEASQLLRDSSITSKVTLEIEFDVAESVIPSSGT

T7: HTRA3, P83110
T7 sequence (P83110 354-453, limits assumed, looked up): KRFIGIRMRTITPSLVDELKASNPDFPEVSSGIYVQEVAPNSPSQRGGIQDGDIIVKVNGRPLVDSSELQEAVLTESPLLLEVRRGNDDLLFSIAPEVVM

T8: LIN7B, Q9HAP6
T8 sequence (Q9HAP6 88-185, limits assumed, looked up): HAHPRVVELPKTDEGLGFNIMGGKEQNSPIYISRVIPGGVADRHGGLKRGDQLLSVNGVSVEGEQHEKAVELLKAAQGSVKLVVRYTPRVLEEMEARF

T9: LIN7C, Q9NUP9
T9 sequence (Q9NUP9 88-185, limits assumed, looked up): T8 sequence (Q9HAP6 88-185, limits assumed, looked up) with A2S, D13E, V35I, V40I, Q65H, S79K, R89K, A96S

T10: MPP7, Q5T2T1
T10 sequence (Q5T2T1 134-230, limits assumed, looked up): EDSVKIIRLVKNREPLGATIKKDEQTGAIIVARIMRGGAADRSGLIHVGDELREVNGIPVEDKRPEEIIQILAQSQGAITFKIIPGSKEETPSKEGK

T11: PDZRN3_1, Q9UPQ7
T11 sequence (Q9UPQ7 244-349, limits assumed, looked up): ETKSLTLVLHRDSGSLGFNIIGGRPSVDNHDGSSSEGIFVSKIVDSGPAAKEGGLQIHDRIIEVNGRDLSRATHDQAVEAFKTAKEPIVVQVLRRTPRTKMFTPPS


molecular target: T1, APBA1_1, Q02410; assay: holdup assay; design: key: below the threshold = too weak to quantify, mostly under pKd 3.1 to 4; conditions: plain residues with an end cap or a label only (N-terminal biotin on a linker: ado-ado)

| pKd | Binder |
| --- | --- |
| below the threshold | QGLAERISVL [PRKD2, Q9BZL6] |

molecular target: T2, ARHGAP21, Q5T5U3; assay: holdup assay; design: key: below the threshold = too weak to quantify, mostly under pKd 3.1 to 4; conditions: plain residues with an end cap or a label only (N-terminal biotin on a linker: ado-ado)

| pKd | Binder |
| --- | --- |
| 3.93 | QGLAERISVL [PRKD2, Q9BZL6] |

molecular target: CASK, O14936; assay: holdup assay; design: key: below the threshold = too weak to quantify, mostly under pKd 3.1 to 4; conditions: plain residues with an end cap or a label only (N-terminal biotin on a linker: ado-ado)
Sequence (O14936 487-570): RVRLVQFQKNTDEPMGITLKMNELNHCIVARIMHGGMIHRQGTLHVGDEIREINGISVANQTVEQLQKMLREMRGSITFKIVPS

| pKd | Binder |
| --- | --- |
| below the threshold | QGLAERISVL [PRKD2, Q9BZL6] |

molecular target: T3, DFNB31_2, Q9P202; assay: holdup assay; design: key: below the threshold = too weak to quantify, mostly under pKd 3.1 to 4; conditions: plain residues with an end cap or a label only (N-terminal biotin on a linker: ado-ado)

| pKd | Binder |
| --- | --- |
| below the threshold | QGLAERISVL [PRKD2, Q9BZL6] |

molecular target: T4, DLG3_2, Q92796; assay: holdup assay; design: key: below the threshold = too weak to quantify, mostly under pKd 3.1 to 4; conditions: plain residues with an end cap or a label only (N-terminal biotin on a linker: ado-ado)

| pKd | Binder |
| --- | --- |
| below the threshold | QGLAERISVL [PRKD2, Q9BZL6] |

molecular target: DLG4_1, P78352; assay: holdup assay; design: key: below the threshold = too weak to quantify, mostly under pKd 3.1 to 4; conditions: plain residues with an end cap or a label only (N-terminal biotin on a linker: ado-ado)
Sequence (P78352 62-152): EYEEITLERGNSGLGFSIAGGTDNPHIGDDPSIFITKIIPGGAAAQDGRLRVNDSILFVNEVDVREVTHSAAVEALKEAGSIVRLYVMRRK

| pKd | Binder |
| --- | --- |
| below the threshold | QGLAERISVL [PRKD2, Q9BZL6] |

molecular target: FRMPD3, Q5JV73; assay: holdup assay; design: key: below the threshold = too weak to quantify, mostly under pKd 3.1 to 4; conditions: plain residues with an end cap or a label only (N-terminal biotin on a linker: ado-ado)
Sequence (Q5JV73 12-100): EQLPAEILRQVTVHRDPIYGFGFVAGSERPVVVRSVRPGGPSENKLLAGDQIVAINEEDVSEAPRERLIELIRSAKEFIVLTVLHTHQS

| pKd | Binder |
| --- | --- |
| below the threshold | QGLAERISVL [PRKD2, Q9BZL6] |

molecular target: FRMPD4, Q14CM0; assay: holdup assay; design: key: below the threshold = too weak to quantify, mostly under pKd 3.1 to 4; conditions: plain residues with an end cap or a label only (N-terminal biotin on a linker: ado-ado)
Sequence (Q14CM0 67-160): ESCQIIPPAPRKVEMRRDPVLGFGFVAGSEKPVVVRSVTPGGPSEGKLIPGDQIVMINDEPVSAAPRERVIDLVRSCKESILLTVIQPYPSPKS

| pKd | Binder |
| --- | --- |
| 3.83 | QGLAERISVL [PRKD2, Q9BZL6] |

molecular target: GIPC2, Q8TF65; assay: holdup assay; design: key: below the threshold = too weak to quantify, mostly under pKd 3.1 to 4; conditions: plain residues with an end cap or a label only (N-terminal biotin on a linker: ado-ado)
Sequence (Q8TF65 112-203): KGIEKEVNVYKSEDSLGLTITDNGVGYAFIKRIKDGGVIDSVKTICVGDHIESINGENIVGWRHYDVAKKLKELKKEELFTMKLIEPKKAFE

| pKd | Binder |
| --- | --- |
| below the threshold | QGLAERISVL [PRKD2, Q9BZL6] |

molecular target: GORASP1, Q9BQQ3; assay: holdup assay; design: key: below the threshold = too weak to quantify, mostly under pKd 3.1 to 4; conditions: plain residues with an end cap or a label only (N-terminal biotin on a linker: ado-ado)
Sequence (Q9BQQ3 1-208): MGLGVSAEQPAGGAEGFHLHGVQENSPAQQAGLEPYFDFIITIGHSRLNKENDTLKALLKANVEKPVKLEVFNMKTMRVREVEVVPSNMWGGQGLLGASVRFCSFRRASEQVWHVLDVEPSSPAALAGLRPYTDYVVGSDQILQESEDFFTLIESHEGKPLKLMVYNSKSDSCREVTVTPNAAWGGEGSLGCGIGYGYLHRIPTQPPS

| pKd | Binder |
| --- | --- |
| 4.08 | QGLAERISVL [PRKD2, Q9BZL6] |

molecular target: GORASP2, Q9H8Y8; assay: holdup assay; design: key: below the threshold = too weak to quantify, mostly under pKd 3.1 to 4; conditions: plain residues with an end cap or a label only (N-terminal biotin on a linker: ado-ado)

| pKd | Binder |
| --- | --- |
| 4.16 | QGLAERISVL [PRKD2, Q9BZL6] |

molecular target: GRID2IP_1, A4D2P6; assay: holdup assay; design: key: below the threshold = too weak to quantify, mostly under pKd 3.1 to 4; conditions: plain residues with an end cap or a label only (N-terminal biotin on a linker: ado-ado)
Sequence (A4D2P6 1-87): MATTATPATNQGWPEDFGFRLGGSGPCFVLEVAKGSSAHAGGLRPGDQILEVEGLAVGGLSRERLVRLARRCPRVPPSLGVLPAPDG

| pKd | Binder |
| --- | --- |
| below the threshold | QGLAERISVL [PRKD2, Q9BZL6] |

molecular target: T5, GRIP1_3, Q9Y3R0; assay: holdup assay; design: key: below the threshold = too weak to quantify, mostly under pKd 3.1 to 4; conditions: plain residues with an end cap or a label only (N-terminal biotin on a linker: ado-ado)

| pKd | Binder |
| --- | --- |
| below the threshold | QGLAERISVL [PRKD2, Q9BZL6] |

molecular target: T6, GRIP1_4, Q9Y3R0; assay: holdup assay; design: key: below the threshold = too weak to quantify, mostly under pKd 3.1 to 4; conditions: plain residues with an end cap or a label only (N-terminal biotin on a linker: ado-ado)

| pKd | Binder |
| --- | --- |
| below the threshold | QGLAERISVL [PRKD2, Q9BZL6] |

molecular target: GRIP2_5, Q9C0E4; assay: holdup assay; design: key: below the threshold = too weak to quantify, mostly under pKd 3.1 to 4; conditions: plain residues with an end cap or a label only (N-terminal biotin on a linker: ado-ado)
Sequence (Q9C0E4 544-642): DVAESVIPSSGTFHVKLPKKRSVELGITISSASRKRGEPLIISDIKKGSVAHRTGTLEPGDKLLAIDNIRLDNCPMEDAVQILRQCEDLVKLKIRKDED

| pKd | Binder |
| --- | --- |
| below the threshold | QGLAERISVL [PRKD2, Q9BZL6] |

molecular target: T7, HTRA3, P83110; assay: holdup assay; design: key: below the threshold = too weak to quantify, mostly under pKd 3.1 to 4; conditions: plain residues with an end cap or a label only (N-terminal biotin on a linker: ado-ado)

| pKd | Binder |
| --- | --- |
| below the threshold | QGLAERISVL [PRKD2, Q9BZL6] |

molecular target: Inadl_2, Q8NI35; assay: holdup assay; design: key: below the threshold = too weak to quantify, mostly under pKd 3.1 to 4; conditions: plain residues with an end cap or a label only (N-terminal biotin on a linker: ado-ado)
Sequence (Q8NI35 238-335): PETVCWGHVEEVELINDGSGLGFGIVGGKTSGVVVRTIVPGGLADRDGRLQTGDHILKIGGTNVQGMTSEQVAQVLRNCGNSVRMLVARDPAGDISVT

| pKd | Binder |
| --- | --- |
| below the threshold | QGLAERISVL [PRKD2, Q9BZL6] |

molecular target: T8, LIN7B, Q9HAP6; assay: holdup assay; design: key: below the threshold = too weak to quantify, mostly under pKd 3.1 to 4; conditions: plain residues with an end cap or a label only (N-terminal biotin on a linker: ado-ado)

| pKd | Binder |
| --- | --- |
| below the threshold | QGLAERISVL [PRKD2, Q9BZL6] |

molecular target: T9, LIN7C, Q9NUP9; assay: holdup assay; design: key: below the threshold = too weak to quantify, mostly under pKd 3.1 to 4; conditions: plain residues with an end cap or a label only (N-terminal biotin on a linker: ado-ado)

| pKd | Binder |
| --- | --- |
| 4.12 | QGLAERISVL [PRKD2, Q9BZL6] |

molecular target: LNX1_1, Q8TBB1; assay: holdup assay; design: key: below the threshold = too weak to quantify, mostly under pKd 3.1 to 4; conditions: plain residues with an end cap or a label only (N-terminal biotin on a linker: ado-ado)
Sequence (Q8TBB1 261-371): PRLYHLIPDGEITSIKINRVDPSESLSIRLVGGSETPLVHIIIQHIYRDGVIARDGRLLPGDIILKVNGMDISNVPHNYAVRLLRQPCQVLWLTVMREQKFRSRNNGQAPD

| pKd | Binder |
| --- | --- |
| 3.86 | QGLAERISVL [PRKD2, Q9BZL6] |

molecular target: MAGI2_3, Q86UL8; assay: holdup assay; design: key: below the threshold = too weak to quantify, mostly under pKd 3.1 to 4; conditions: plain residues with an end cap or a label only (N-terminal biotin on a linker: ado-ado)
Sequence (Q86UL8 600-682): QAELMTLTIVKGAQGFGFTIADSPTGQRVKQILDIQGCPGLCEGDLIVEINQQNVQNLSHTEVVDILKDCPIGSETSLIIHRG

| pKd | Binder |
| --- | --- |
| below the threshold | QGLAERISVL [PRKD2, Q9BZL6] |

molecular target: MAGI2_4, Q86UL8; assay: holdup assay; design: key: below the threshold = too weak to quantify, mostly under pKd 3.1 to 4; conditions: plain residues with an end cap or a label only (N-terminal biotin on a linker: ado-ado)
Sequence (Q86UL8 772-865): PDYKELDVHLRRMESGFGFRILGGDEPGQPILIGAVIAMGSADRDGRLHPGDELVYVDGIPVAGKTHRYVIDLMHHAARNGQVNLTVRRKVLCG

| pKd | Binder |
| --- | --- |
| below the threshold | QGLAERISVL [PRKD2, Q9BZL6] |

molecular target: T10, MPP7, Q5T2T1; assay: holdup assay; design: key: below the threshold = too weak to quantify, mostly under pKd 3.1 to 4; conditions: plain residues with an end cap or a label only (N-terminal biotin on a linker: ado-ado)

| pKd | Binder |
| --- | --- |
| below the threshold | QGLAERISVL [PRKD2, Q9BZL6] |

molecular target: NHERF4_2, Q86UT5; assay: holdup assay; design: key: below the threshold = too weak to quantify, mostly under pKd 3.1 to 4; conditions: plain residues with an end cap or a label only (N-terminal biotin on a linker: ado-ado)
Sequence (Q86UT5 220-308): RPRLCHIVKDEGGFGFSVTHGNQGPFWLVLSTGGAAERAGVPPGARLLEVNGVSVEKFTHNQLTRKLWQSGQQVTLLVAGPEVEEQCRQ

| pKd | Binder |
| --- | --- |
| below the threshold | QGLAERISVL [PRKD2, Q9BZL6] |

molecular target: T11, PDZRN3_1, Q9UPQ7; assay: holdup assay; design: key: below the threshold = too weak to quantify, mostly under pKd 3.1 to 4; conditions: plain residues with an end cap or a label only (N-terminal biotin on a linker: ado-ado)

| pKd | Binder |
| --- | --- |
| 3.84 | QGLAERISVL [PRKD2, Q9BZL6] |
